# Measurements as given in the supplement of paper PMC5998384.
# Legend:
# HeLa Kyoto [1] = experiment: solubility change mitosis vs G1/S (difference of NP-40 vs SDS log2 ratios) (log2 ratio difference); higher = more soluble in mitosis
# HeLa Kyoto [2] = experiment: solubility in G1/S (NP-40 vs SDS abundance) (log2 ratio); higher = more soluble; conditions: cell cycle stage: G1/S
# HeLa Kyoto [3] = experiment: melting temperature (median over replicates), in situ; higher = more thermally stable
# 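For melting temperature (median over replicates), in situ in this document: HeLa Kyoto cells synchronized by double thymidine or nocodazole block, proteins quantified by TMT10plex mass spectrometry, three independent biological replicates.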
# 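For solubility change mitosis vs G1/S (difference of NP-40 vs SDS log2 ratios) in this document: synchronized HeLa Kyoto cells (double thymidine block for G1/S, nocodazole release for mitosis), protein amounts in NP-40 versus SDS lysates quantified by mass spectrometry, three biological replicates.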
# 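For solubility in G1/S (NP-40 vs SDS abundance) in this document: HeLa Kyoto cells arrested at G1/S by double thymidine block, proteins quantified by TMT10plex mass spectrometry in mild NP-40 versus SDS extracts, three biological replicates.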
# Chain of LLPH (chain, as listed by the source): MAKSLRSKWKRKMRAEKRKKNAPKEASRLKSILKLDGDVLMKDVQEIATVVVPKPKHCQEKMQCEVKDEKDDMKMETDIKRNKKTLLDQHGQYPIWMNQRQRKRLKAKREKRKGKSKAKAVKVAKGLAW
Substance,solubility change mitosis (log2) (HeLa Kyoto [1]),solubility in G1/S (log2) (HeLa Kyoto [2]),melting temperature (HeLa Kyoto [3]; cell cycle stage: G1/S) [°C],melting temperature (HeLa Kyoto [3]; cell cycle stage: mitosis) [°C]
MYLSICCCFLLWAPALTLKNLNYSVPEEQGAGTVIGNIGRDARLQPGLPPAERGGGGRSKSGSYRVLENSAPHLLDVDADSGLLYTKQRIDRESLCRHNAKCQLSLEVFANDKEICMIKVEIQDINDNAPSFSSDQIEMDISENAAPGTRFPLTSAHDPDAGENGLRTYLLTRDDHGLFGLDVKSRGDGTKFPELVIQKALDREQQNHHTLVLTALDGGEPPRSATVQINVKVIDSNDNSPVFEAPSYLVELPENAPLGTVVIDLNATDADEGPNGEVLYSFSSYVPDRVRELFSIDPKTGLIRVKGNLDYEENGMLEIDVQARDLGPNPIPAHCKVTVKLIDRNDNAPSIGFVSVRQGALSEAAPPGTVIALVRVTDRDSGKNGQLQCRVLGGGGTGGGGGLGGPGGSVPFKLEENYDNFYTVVTDRPLDRETQDEYNVTIVARDGGSPPLNSTKSFAIKILDENDNPPRFTKGLYVLQVHENNIPGEYLGSVLAQDPDLGQNGTVSYSILPSHIGDVSIYTYVSVNPTNGAIYALRSFNFEQTKAFEFKVLAKDSGAPAHLESNATVRVTVLDVNDNAPVIVLPTLQNDTAELQVPRNAGLGYLVSTVRALDSDFGESGRLTYEIVDGNDDHLFEIDPSSGEIRTLHPFWEDVTPVVELVVKVTDHGKPTLSAVAKLIIRSVSGSLPEGVPRVNGEQHHWDMSLPLIVTLSTISIILLAAMITIAVKCKRENKEIRTYNCRIAEYSHPQLGGGKGKKKKINKNDIMLVQSEVEERNAMNVMNVVSSPSLATSPMYFDYQTRLPLSSPRSEVMYLKPASNNLTVPQGHAGCHTSFTGQGTNASETPATRMSIIQTDNFPAEPNYMGSRQQFVQSSSTFKDPERASLRDSGHGDSDQADSDQDTNKGSCCDMSVREALKMKTTSTKSQPLEQEPEECVNCTDECRVLGHSDRCWMPQFPAANQAENADYRTNLFVPTVEANVETETYETVNPTGKKTFCTFGKDKREHTILIANVKPYLKAKRALSPLLQEVPSASSSPTKACIEPCTSTKGSLDGCEAKPGALAEASSQYLPTDSQYLSPSKQPRDPPFMASDQMARVFADVHSRASRDSSEMGAVLEQLDHPNRDLGRESVDAEEVVREIDKLLQDCRGNDPVAVRK [PCDH17],-0.0215,0.25,53.8,53.4
LLPH,1.03,-1.23,58.7,55.8
MAAPSEVAAIAPGEGDGGGGGFGSWLDGRLEALGVDRAVYGAYILGILQEEEEEEKLDALQGILSAFLEEDSLLNICKEIVERWSETQNVVTKVKKEDEVQAIATLIEKQAQIVVKPRMVSEEEKQRKAALLAQYADVTDEEDEADEKDDSGATTMNIGSDKLLFRNTNVEDVLNARKLERDSLRDESQRKKEQDKLQRERDKLAKQERKEKEKKRTQRGERKR [CCDC43],0.216,0.483,53.8,53.7
MEAAVGVPDGGDQGGAGPREDATPMDAYLRKLGLYRKLVAKDGSCLFRAVAEQVLHSQSRHVEVRMACIHYLRENREKFEAFIEGSFEEYLKRLENPQEWVGQVEISALSLMYRKDFIIYREPNVSPSQVTENNFPEKVLLCFSNGNHYDIVYPIKYKESSAMCQSLLYELLYEKVFKTDVSKIVMELDTLEVADEDNSEISDSEDDSCKSKTAAAAADVNGFKPLSGNEQLKNNGNSTSLPLSRKVLKSLNPAVYRNVEYEIWLKSKQAQQKRDYSIAAGLQYEVGDKCQVRLDHNGKFLNADVQGIHSENGPVLVEELGKKHTSKNLKAPPPESWNTVSGKKMKKPSTSGQNFHSDVDYRGPKNPSKPIKAPSALPPRLQHPSGVRQHAFSSHSSGSQSQKFSSEHKNLSRTPSQIIRKPDRERVEDFDHTSRESNYFGLSPEERREKQAIEESRLLYEIQNRDEQAFPALSSSSVNQSASQSSNPCVQRKSSHVGDRKGSRRRMDTEERKDKDSIHGHSQLDKRPEPSTLENITDDKYATVSSPSKSKKLECPSPAEQKPAEHVSLSNPAPLLVSPEVHLTPAVPSLPATVPAWPSEPTTFGPTGVPAPIPVLSVTQTLTTGPDSAVSQAHLTPSPVPVSIQAVNQPLMPLPQTLSLYQDPLYPGFPCNEKGDRAIVPPYSLCQTGEDLPKDKNILRFFFNLGVKAYSCPMWAPHSYLYPLHQAYLAACRMYPKVPVPVYPHNPWFQEAPAAQNESDCTCTDAHFPMQTEASVNGQMPQPEIGPPTFSSPLVIPPSQVSESHGQLSYQADLESETPGQLLHADYEESLSGKNMFPQPSFGPNPFLGPVPIAPPFFPHVWYGYPFQGFIENPVMRQNIVLPSDEKGELDLSLENLDLSKDCGSVSTVDEFPEARGEHVHSLPEASVSSKPDEGRTEQSSQTRKADTALASIPPVAEGKAHPPTQILNRERETVPVELEPKRTIQSLKEKTEKVKDPKTAADVVSPGANSVDSRVQRPKEESSEDENEVSNILRSGRSKQFYNQTYGSRKYKSDWGYSGRGGYQHVRSEESWKGQPSRSRDEGYQYHRNVRGRPFRGDRRRSGMGDGHRGQHT [OTUD4],0.0663,-0.0234,,51.1
MAGVSYAAPWWVSLLHRLPHFDLSWEATSSQFRPEDTDYQQALLLLGAAALACLALDLLFLLFYSFWLCCRRRKSEEHLDADCCCTAWCVIIATLVCSAGIAVGFYGNGETSDGIHRATYSLRHANRTVAGVQDRVWDTAVGLNHTAEPSLQTLERQLAGRPEPLRAVQRLQGLLETLLGYTAAIPFWRNTAVSLEVLAEQVDLYDWYRWLGYLGLLLLDVIICLLVLVGLIRSSKGILVGVCLLGVLALVISWGALGLELAVSVGSSDFCVDPDAYVTKMVEEYSVLSGDILQYYLACSPRAANPFQQKLSGSHKALVEMQDVVAELLRTVPWEQPATKDPLLRVQEVLNGTEVNLQHLTALVDCRSLHLDYVQALTGFCYDGVEGLIYLALFSFVTALMFSSIVCSVPHTWQQKRGPDEDGEEEAAPGPRQAHDSLYRVHMPSLYSCGSSYGSETSIPAAAHTVSNAPVTEYMSQNANFQNPRCENTPLIGRESPPPSYTSSMRAKYLATSQPRPDSSGSH [TTYH3],-0.146,0.256,55.3,56.1
MAPLRFSANLSWLFPELSGLPARVRAAGSSGFEAVEVAWPYAETPEALARAAREAGLRLVLINTPPGDQEKGEMGLGAVPGRQAAFREGLEQAVRYAKALGCPRIHLMAGRVPQGADRIAVKAEMEAVFLENLRHAAGVLAQEDLVGLLEPINTRITDPQYFLDTPQQAAAILQKVGRPNLQLQMDIFHWQIMDGNLTGNIREFLPIVGHVQVAQVPGRGEPSSPGELNFPYLFQLLEDEGYKGFVGCEYQPRGDTVEGLSWLRSYWDRRGHPEAGQ [HYI],0.234,0.344,55.2,54.7
MSVAGGEIRGDTGGEDTAAPGRFSFSPEPTLEDIRRLHAEFAAERDWEQFHQPRNLLLALVGEVGELAELFQWKTDGEPGPQGWSPRERAALQEELSDVLIYLVALAARCRVDLPLAVLSKMDINRRRYPAHLARSSSRKYTELPHGAISEDQAVGPADIPCDSTGQTST [DCTPP1],0.646,-0.0125,54.1,50.5
CRYBG3,-0.00814,-0.18,51.3,50.4
MAAGERSWCLCKLLRFFYSLFFPGLIVCGTLCVCLVIVLWGIRLLLQRKKKLVSTSKNGKNQMVIAFFHPYCNAGGGGERVLWCALRALQKKYPEAVYVVYTGDVNVNGQQILEGAFRRFNIRLIHPVQFVFLRKRYLVEDSLYPHFTLLGQSLGSIFLGWEALMQCVPDVYIDSMGYAFTLPLFKYIGGCQVGSYVHYPTISTDMLSVVKNQNIGFNNAAFITRNPFLSKVKLIYYYLFAFIYGLVGSCSDVVMVNSSWTLNHILSLWKVGNCTNIVYPPCDVQTFLDIPLHEKKMTPGHLLVSVGQFRPEKNHPLQIRAFAKLLNKKMVESPPSLKLVLIGGCRNKDDELRVNQLRRLSEDLGVQEYVEFKINIPFDELKNYLSEATIGLHTMWNEHFGIGVVECMAAGTIILAHNSGGPKLDIVVPHEGDITGFLAESEEDYAETIAHILSMSAEKRLQIRKSARASVSRFSDQEFEVTFLSSVEKLFK [ALG11],-0.199,0.114,,52.4
MAEPSVESSSPGGSATSDDHEFDPSADMLVHDFDDERTLEEEEMMEGETNFSSEIEDLAREGDMPIHELLSLYGYGSTVRLPEEDEEEEEEEEEGEDDEDADNDDNSGCSGENKEENIKDSSGQEDETQSSNDDPSQSVASQDAQEIIRPRRCKYFDTNSEVEEESEEDEDYIPSEDWKKEIMVGSMFQAEIPVGICRYKENEKVYENDDQLLWDPEYLPEDKVIIFLKDASRRTGDEKGVEAIPEGSHIKDNEQALYELVKCNFDTEEALRRLRFNVKAAREELSVWTEEECRNFEQGLKAYGKDFHLIQANKVRTRSVGECVAFYYMWKKSERYDFFAQQTRFGKKKYNLHPGVTDYMDRLLDESESAASSRAPSPPPTASNSSNSQSEKEDGTVSTANQNGVSSNGPGEILNKEEVKVEGLHINGPTGGNKKPLHADMDTNGYETDNLTTDPKLAHMTARNENDFDEKSERPAKRRRVNSNGKESPGSSEFFQEAVSHGKFEELENTDD [MIER1],-0.0394,0.00102,53.4,52.2
MALTVDVAGPAPWGFRITGGRDFHTPIMVTKVAERGKAKDADLRPGDIIVAINGESAEGMLHAEAQSKIRQSPSPLRLQLDRSQATSPGQTNGDSSLEVLATRFQGSVRTYTESQSSLRSSYSSPTSLSPRAGSPFSPPPSSSSLTGEAAISRSFQSLACSPGLPAADRLSYSGRPGSRQAGLGRAGDSAVLVLPPSPGPRSSRPSMDSEGGSLLLDEDSEVFKMLQENREGRAAPRQSSSFRLLQEALEAEERGGTPAFLPSSLSPQSSLPASRALATPPKLHTCEKCSTSIANQAVRIQEGRYRHPGCYTCADCGLNLKMRGHFWVGDELYCEKHARQRYSAPATLSSRA [PDLIM2],-0.043,0.17,55.6,53.8
MGDEDDDESCAVELRITEANLTGHEEKVSVENFELLKVLGTGAYGKVFLVRKAGGHDAGKLYAMKVLRKAALVQRAKTQEHTRTERSVLELVRQAPFLVTLHYAFQTDAKLHLILDYVSGGEMFTHLYQRQYFKEAEVRVYGGEIVLALEHLHKLGIIYRDLKLENVLLDSEGHIVLTDFGLSKEFLTEEKERTFSFCGTIEYMAPEIIRSKTGHGKAVDWWSLGILLFELLTGASPFTLEGERNTQAEVSRRILKCSPPFPPRIGPVAQDLLQRLLCKDPKKRLGAGPQGAQEVRNHPFFQGLDWVALAARKIPAPFRPQIRSELDVGNFAEEFTRLEPVYSPPGSPPPGDPRIFQGYSFVAPSILFDHNNAVMTDGLEAPGAGDRPGRAAVARSAMMQDSPFFQQYELDLREPALGQGSFSVCRRCRQRQSGQEFAVKILSRRLEANTQREVAALRLCQSHPNVVNLHEVHHDQLHTYLVLELLRGGELLEHIRKKRHFSESEASQILRSLVSAVSFMHEEAGVVHRDLKPENILYADDTPGAPVKIIDFGFARLRPQSPGVPMQTPCFTLQYAAPELLAQQGYDESCDLWSLGVILYMMLSGQVPFQGASGQGGQSQAAEIMCKIREGRFSLDGEAWQGVSEEAKELVRGLLTVDPAKRLKLEGLRGSSWLQDGSARSSPPLRTPDVLESSGPAVRSGLNATFMAFNRGKREGFFLKSVENAPLAKRRKQKLRSATASRRGSPAPANPGRAPVASKGAPRRANGPLPPS [RPS6KA4],-0.0849,-0.0622,46.6,49.5
MADQRQRSLSTSGESLYHVLGLDKNATSDDIKKSYRKLALKYHPDKNPDNPEAADKFKEINNAHAILTDATKRNIYDKYGSLGLYVAEQFGEENVNTYFVLSSWWAKALFVFCGLLTCCYCCCCLCCCFNCCCGKCKPKAPEGEETEFYVSPEDLEAQLQSDEREATDTPIVIQPASATETTQLTADSHPSYHTDGFN [DNAJC5],-0.273,0.0289,56,53.5
